The source of these data is article PMC12915131, “Balanced Expression of the Diiron Oxygenase BioE Is Essential for Biotin Homeostasis in Elizabethkingia meningoseptica” (Advanced Science, 2025).

Usually stoichiometry N stands for a count of units in the complex or per binding partner. Usually Kd stands for a measure of binding affinity in units of concentration.

The target of assay [1] is Elizabethkingia meningoseptica BioE (Elizabethkingia meningoseptica). The experiment in a line: SEC; Superdex 75 (Increase) column, 20 mM Tris-HCl pH 8.0, 300 mM NaCl; oligomeric state judged from retention volume. Background: SEC sorts molecules by how far they enter the pores of the column.
In assay [2] the target is Chlamydia psittaci BioE (Chlamydia psittaci). The experiment in a line: SPR; […], single-cycle kinetics, 1:1 Langmuir fit; […]. Background: Surface plasmon resonance follows binding to a sensor surface in real time, without labels.

Chain of stearoyl-ACP (E. coli acyl carrier protein carrying a C18 acyl group) (P0A6A8 2-78): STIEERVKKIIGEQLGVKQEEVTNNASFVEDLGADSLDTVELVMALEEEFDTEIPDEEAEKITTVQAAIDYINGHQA

As for “Elizabethkingia meningoseptica BioE (enzyme)”, the stoichiometry N in assay [1] came to 2. Take “stearoyl-ACP (E. coli acyl carrier protein carrying a C18 acyl group) (from UniProt P0A6A8 2-78) (natural protein)”: the Kd in assay [2] amounted to 203 nM. This counts as sub-micromolar.
